Assay results taken from IntAct's records for PubMed 31515488.

B1: U3 small nucleolar RNA-associated protein 14 homolog C (Homo sapiens), Q5TAP6 (parent)
chain: MNVNQVAENLALSHQEELVDLPKNYPLSENEDEGDSDGERKHQKLLEAIISLDGKNRRKLAERSEASLKVSEFSVSSEGSGEKLGLADLLEPVKTSSSLATVKKQLNRVKSKKVVELPLNKEKIEQIHREVAFSKTSQVLSKWDPIILKNQQAEQLVFPLGKEQPAIAPIEHALSGWKARTPLEQEIFNLLHKNKQPVTDPLLTPMEKASLQAMSLEEAKMHRAELQRARALQSYYEAKARKEKKIKSKKYHKVVKKGKAKKALKEFEQLQKVNPTVALEEMEKIENARMMERMSLKHQNSGKWAKSKAIMAKYDLEARQAMQEQLAKNKELTQKLQVASESEEEEGGTEVEELLVPHVANEVQMNVDGPNPWMFRSCTSDTKEAATQEDPEQVPELAAHEVSASEAEERPVAEEEILLREFEERQSLRKRSELNQDAEPASSQETKDSSSQEVLSELRALSQKLKEKHQSRKQKASSEGTVPQVQREEPAPEEAEPLLLQRSERVQTLEELEELGKEDCFQNKELPRPVLEGQQSERTPNNRPDAPKEKKEKEQLINLQNFLTTQSPSVRSLAVPTIIEELEDEEERDQRQMIKEAFAGDDVIRDFLKEKREAVEASKPKDVDLTLPGWGEWGGVGLKPSAKKRRQFLIKAPEGPPRKDKNLPNVIISEKRNIHAAAHQVQVLPYPFTHHRQFERTIQTPIGSTWNTQRAFQKLTTPKVVTKPGHIIKPIKAEDVGYQSSSRSDLPVIQRNPKRITTRHNKEEKL
partner: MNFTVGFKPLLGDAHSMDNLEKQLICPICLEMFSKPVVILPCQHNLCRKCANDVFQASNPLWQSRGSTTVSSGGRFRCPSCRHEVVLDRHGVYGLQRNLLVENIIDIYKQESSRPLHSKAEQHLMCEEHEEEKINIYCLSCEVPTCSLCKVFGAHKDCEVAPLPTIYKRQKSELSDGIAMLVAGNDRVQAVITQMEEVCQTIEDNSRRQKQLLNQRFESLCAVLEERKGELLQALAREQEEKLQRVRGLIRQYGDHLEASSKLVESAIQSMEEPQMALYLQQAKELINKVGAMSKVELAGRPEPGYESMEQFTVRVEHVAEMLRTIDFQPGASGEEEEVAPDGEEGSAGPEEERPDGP
B2: LHFPL tetraspan subfamily member 5 protein (Homo sapiens), Q8TAF8 (parent)
chain: MVKLLPAQEAAKIYHTNYVRNSRAVGVMWGTLTICFSVLVMALFIQPYWIGDSVNTPQAGYFGLFSYCVGNVLSSELICKGGPLDFSSIPSRAFKTAMFFVALGMFLIIGSIICFSLFFICNTATVYKICAWMQLAAATGLMIGCLVYPDGWDSSEVRRMCGEQTGKYTLGHCTIRWAFMLAILSIGDALILSFLAFVLGYRQDKLLPDDYKADGTEEV
partner: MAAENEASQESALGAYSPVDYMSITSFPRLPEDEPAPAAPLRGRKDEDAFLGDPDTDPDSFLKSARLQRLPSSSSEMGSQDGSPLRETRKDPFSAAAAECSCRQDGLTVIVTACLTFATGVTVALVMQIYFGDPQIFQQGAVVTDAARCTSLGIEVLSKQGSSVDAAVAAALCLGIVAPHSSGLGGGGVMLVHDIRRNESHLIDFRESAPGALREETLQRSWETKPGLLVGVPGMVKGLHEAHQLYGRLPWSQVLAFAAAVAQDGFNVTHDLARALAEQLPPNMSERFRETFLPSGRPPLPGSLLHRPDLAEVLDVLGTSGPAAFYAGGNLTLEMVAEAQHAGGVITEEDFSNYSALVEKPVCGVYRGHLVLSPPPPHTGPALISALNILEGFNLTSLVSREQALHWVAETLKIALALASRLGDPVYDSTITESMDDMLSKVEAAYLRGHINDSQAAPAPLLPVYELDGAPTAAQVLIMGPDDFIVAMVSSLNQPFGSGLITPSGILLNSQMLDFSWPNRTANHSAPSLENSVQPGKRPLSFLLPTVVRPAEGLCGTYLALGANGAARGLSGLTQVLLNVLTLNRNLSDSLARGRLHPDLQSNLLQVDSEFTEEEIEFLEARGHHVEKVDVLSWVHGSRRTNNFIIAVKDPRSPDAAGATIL
B3: 5'-AMP-activated protein kinase subunit beta-2 (Homo sapiens), O43741 (parent)
chain: MGNTTSDRVSGERHGAKAARSEGAGGHAPGKEHKIMVGSTDDPSVFSLPDSKLPGDKEFVSWQQDLEDSVKPTQQARPTVIRWSEGGKEVFISGSFNNWSTKIPLIKSHNDFVAILDLPEGEHQYKFFVDGQWVHDPSEPVVTSQLGTINNLIHVKKSDFEVFDALKLDSMESSETSCRDLSSSPPGPYGQEMYAFRSEERFKSPPILPPHLLQVILNKDTNISCDPALLPEPNHVMLNHLYALSIKDSVMVLSATHRYKKKYVTTLLYKPI
partner: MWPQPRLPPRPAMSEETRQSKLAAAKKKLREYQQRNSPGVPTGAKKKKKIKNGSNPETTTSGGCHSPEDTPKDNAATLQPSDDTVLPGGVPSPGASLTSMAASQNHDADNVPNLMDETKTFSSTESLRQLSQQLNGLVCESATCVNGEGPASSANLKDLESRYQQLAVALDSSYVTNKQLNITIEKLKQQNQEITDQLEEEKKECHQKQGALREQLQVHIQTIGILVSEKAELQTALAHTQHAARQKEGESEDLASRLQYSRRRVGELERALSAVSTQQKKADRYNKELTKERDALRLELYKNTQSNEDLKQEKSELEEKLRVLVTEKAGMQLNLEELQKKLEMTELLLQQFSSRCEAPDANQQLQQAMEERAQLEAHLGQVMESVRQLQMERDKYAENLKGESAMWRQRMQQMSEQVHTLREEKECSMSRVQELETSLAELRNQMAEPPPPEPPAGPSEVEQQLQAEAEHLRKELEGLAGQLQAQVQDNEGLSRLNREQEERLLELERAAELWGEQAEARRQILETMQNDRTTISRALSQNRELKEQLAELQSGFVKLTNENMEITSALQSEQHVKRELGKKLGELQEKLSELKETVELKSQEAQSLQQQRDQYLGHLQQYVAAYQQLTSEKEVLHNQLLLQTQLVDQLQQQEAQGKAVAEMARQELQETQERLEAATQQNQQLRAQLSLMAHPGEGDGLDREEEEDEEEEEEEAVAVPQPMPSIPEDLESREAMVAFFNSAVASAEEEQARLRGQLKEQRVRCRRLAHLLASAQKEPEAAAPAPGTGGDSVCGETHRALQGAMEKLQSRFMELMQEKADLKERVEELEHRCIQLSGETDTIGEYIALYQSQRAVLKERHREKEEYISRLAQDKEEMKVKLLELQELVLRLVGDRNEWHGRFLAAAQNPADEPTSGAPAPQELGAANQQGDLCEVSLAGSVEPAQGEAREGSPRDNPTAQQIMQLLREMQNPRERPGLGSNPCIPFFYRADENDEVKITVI
B4: Protein FAM9B (Homo sapiens), Q8IZU0 (parent)
chain: MAAWGKKHAGKDPVRDECEERNRFTETREEDVTDEHGEREPFAETDEHTGANTKKPEDTAEDLTAKRKRMKMDKTCSKTKNKSKHALRKKQLKRQKRDYIHSLKLLNVLEEYITDEQKEEEEEEGEEEELIRIFQEQQKKWQQYRSVRRERLKEMKLLRDQFVKALEDFEDLCDRVFSDEDSELDN
partner: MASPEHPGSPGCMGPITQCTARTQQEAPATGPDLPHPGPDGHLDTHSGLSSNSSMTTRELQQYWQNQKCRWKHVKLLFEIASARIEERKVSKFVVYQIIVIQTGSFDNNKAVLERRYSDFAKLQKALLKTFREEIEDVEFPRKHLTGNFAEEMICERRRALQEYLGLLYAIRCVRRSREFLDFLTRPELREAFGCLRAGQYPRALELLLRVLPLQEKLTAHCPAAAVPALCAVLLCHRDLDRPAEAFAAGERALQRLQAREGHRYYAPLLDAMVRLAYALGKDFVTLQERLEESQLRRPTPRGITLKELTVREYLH
B5: Ras-related protein Rab-5C (Homo sapiens), P51148 (parent)
chain: MAGRGGAARPNGPAAGNKICQFKLVLLGESAVGKSSLVLRFVKGQFHEYQESTIGAAFLTQTVCLDDTTVKFEIWDTAGQERYHSLAPMYYRGAQAAIVVYDITNTDTFARAKNWVKELQRQASPNIVIALAGNKADLASKRAVEFQEAQAYADDNSLLFMETSAKTAMNVNEIFMAIAKKLPKNEPQNATGAPGRNRGVDLQENNPASRSQCCSN
partner: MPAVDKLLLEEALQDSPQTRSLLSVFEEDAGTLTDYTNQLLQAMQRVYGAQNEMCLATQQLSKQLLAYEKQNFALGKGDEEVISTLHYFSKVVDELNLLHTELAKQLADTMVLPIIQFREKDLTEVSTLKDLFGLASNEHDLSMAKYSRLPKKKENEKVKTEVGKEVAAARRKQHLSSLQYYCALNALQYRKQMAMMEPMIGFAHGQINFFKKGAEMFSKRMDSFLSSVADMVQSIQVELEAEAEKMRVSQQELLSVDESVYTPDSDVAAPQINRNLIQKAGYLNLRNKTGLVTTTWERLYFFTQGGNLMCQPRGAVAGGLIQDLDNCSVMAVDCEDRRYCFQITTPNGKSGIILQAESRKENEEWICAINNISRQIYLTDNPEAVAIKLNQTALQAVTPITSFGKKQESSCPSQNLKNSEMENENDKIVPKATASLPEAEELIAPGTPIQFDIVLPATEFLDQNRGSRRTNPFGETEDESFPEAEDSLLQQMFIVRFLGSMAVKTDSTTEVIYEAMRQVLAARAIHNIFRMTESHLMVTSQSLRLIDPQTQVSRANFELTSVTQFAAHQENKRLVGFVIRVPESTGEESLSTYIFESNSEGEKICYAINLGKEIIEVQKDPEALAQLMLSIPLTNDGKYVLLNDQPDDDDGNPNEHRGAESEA

Variants of: B1
Details: with tri54_human TRIM54, Q9BYV2

Variant	effect of a mutation on the interaction
T101A	disrupting interaction strength
I170V	with no effect
V109D	with no effect
K247E	with no effect
A652T	with no effect
V570M	with no effect
R672H	with no effect

Variants of: B2
Details: with ggt7_human GGT7, Q9UJ14

Variant	effect of a mutation on the interaction
K205N	with no effect

Variants of: B3
Details: with goga2_human GOLGA2, Q08379

Variant	effect of a mutation on the interaction
G55E	with no effect

Variants of: B4
Details: with snx20_human SNX20, Q7Z614

Variant	effect of a mutation on the interaction
R23H	with no effect

Variants of: B5
Details: with dp13b_human APPL2, Q8NEU8

Variant	effect of a mutation on the interaction
N206S	with no effect

Variants of: B5
Details: with dp13b_human APPL2, Q8NEU8
Remark: another data set of the same source

Variant	effect of a mutation on the interaction
G93R	with no effect
